We go through 15 molecules from patent US20130164308A1 (RINAT NEUROSCIENCE, published 2013).

Substitutions are numbered along the chain they refer to. Names and notes keep the numbering of the source. Where two headings read alike, the source gives them in different places. Bounds are passed on as bounds.

For test [1], the target named is T1, S. aureus alpha-toxin (Staphylococcus aureus, UniProt P09616).
Test [2] has as its target T1, S. aureus alpha-toxin. This is another data set of the same source.

B1: DF1.1 variant HCDR3-P12A/LCDR3-S6R (antibody, V domains shown)
VH: QVQLVQSGAEVKKPGSSVKVSCKTSGGTFNNVAINWVRQAPGQGLEWMGGIIPGLDTPNYAQKFQGRVTITADKSTTSTYLELSSLRSDDTAVYYCAREMEVSGRWRATEAFEIWGQGTMVTVSS
VL: ETTLTQSPGTLSLSPGERATLSCRASQTISNNFVAWYQQKPGQAPRLLIYGASTRATGIPDRFSGSGSGTDFTLTISSLEPEDFAVYYCQQYGSRPYTFGQGTKVDIK
In turn, B1 returned an equilibrium dissociation constant (Kd) with S. aureus alpha-toxin [1] of 330 nM.

B2: DF1.1 variant HCDR3-G8R (antibody, V domains shown)
VH: B1 VH with G104R, A108P
VL: B1 VL with R95S
In the case of B2, the Kd with S. aureus alpha-toxin [2] turned out to be 0.4 nM.

B3: DF1.1 variant HCDR3-R9A (antibody, V domains shown)
VH: B1 VH with R105A, A108P
VL: B1 VL with R95S
In turn, B3 yielded a Kd in the test with S. aureus alpha-toxin [2] of 0.4 nM.

B4: DF1.1 variant HCDR3-R11A (antibody, V domains shown)
VH: B1 VH with R107A, A108P
VL: B1 VL with R95S
The molecule B4 came in with a Kd in the test with S. aureus alpha-toxin [2] of 0.8 nM. This Kd is about 2-fold higher than that of the molecule before.

B5: DF1.1 variant HCDR3-W10A/LCDR3-Y3A (antibody, V domains shown)
VH: B1 VH with W106A, A108P
VL: B1 VL with Y92A, R95S
In the case of B5, the affinity with S. aureus alpha-toxin [1], expressed as Kd, was 440 nM.

B6: DF1.1 variant HCDR3-A15R/LCDR3-Y3A (antibody, V domains shown)
VH: B1 VH with A108P, A111R
VL: B1 VL with Y92A, R95S
B6 yielded an equilibrium dissociation constant (Kd) with S. aureus alpha-toxin [1] of 280 nM.

B7: DF1.1 variant HCDR3-W10A/LCDR3-Y8A (antibody, V domains shown)
VH: B1 VH with W106A, A108P
VL: B1 VL with R95S, Y97A
On to B7, for which binding with S. aureus alpha-toxin [1] was put at a Kd of 440 nM. This Kd is about 1.6-fold higher than that of the molecule before.

B8: DF1.1 variant LCDR3-T9R (antibody, V domains shown)
VH: B1 VH with A108P
VL: B1 VL with R95S, T98R
In turn, B8 came in with a Kd with S. aureus alpha-toxin [2] below 0.14 nM.

B9: DF1.1 variant HCDR3-P12A/LCDR3-Y3A (antibody, V domains shown)
VH: B1 VH
VL: B1 VL with Y92A, R95S
In the case of B9, the Kd in the test with S. aureus alpha-toxin [1] was found to be 190 nM. That is a sub-micromolar value.

B10: DF1.1 variant LCDR3-Q1A (antibody, V domains shown)
VH: B1 VH with A108P
VL: B1 VL with Q90A, R95S
As to B10, in the test with S. aureus alpha-toxin [2], the Kd was below 0.14 nM.

B11: DF1.1 variant LCDR3-G4R (antibody, V domains shown)
VH: B1 VH with A108P
VL: B1 VL with G93R, R95S
In turn, B11 gave a dissociation constant Kd with S. aureus alpha-toxin [2] below 0.14 nM.

B12: DF1.1 variant HCDR3-E5A (antibody, V domains shown)
VH: B1 VH with E101A, A108P
VL: B1 VL with R95S
Regarding B12, the affinity in the test with S. aureus alpha-toxin [2], expressed as Kd, was 0.4 nM.

B13: DF1.1 variant LCDR3-P7A (antibody, V domains shown)
VH: B1 VH with A108P
VL: B1 VL with R95S, P96A
The molecule B13 registered a Kd with S. aureus alpha-toxin [2] below 0.14 nM.

B14: DF1.1 variant HCDR3-S7R (antibody, V domains shown)
VH: B1 VH with S103R, A108P
VL: B1 VL with R95S
Take B14: the dissociation constant Kd in the test with S. aureus alpha-toxin [2] was 0.3 nM. That is a sub-nanomolar value.

B15: DF1.1 variant HCDR3-P12A/LCDR3-Y8A (antibody, V domains shown)
VH: B1 VH
VL: B1 VL with R95S, Y97A
The molecule B15 yielded a dissociation constant Kd in the test with S. aureus alpha-toxin [1] of 37 nM.

The term Kd denotes the equilibrium constant for the complex coming apart. The low end stands for a tighter complex, the high end for a looser complex.
